Assay [1] addresses HLA-A*01:01. Briefly: IEDB peptide-MHC binding, purified MHC/direct/fluorescence; filed as Kd, often an IC50 or EC50 that approximates it; ≥ and ≤ were set here for values at or beyond the usual limits of such assays.
In assay [2] the target is HLA-A*02:01. The assay is described as above.
The target in assay [3] is HLA-A*02:11. Described as above. The note with it: source organism: Vibrio parahaemolyticus RIMD 2210633.
Assay [4] deals with HLA-A*02:12. Described as above.
Assay [5] addresses HLA-A*02:19. The assay is described as above.
The target in assay [6] is HLA-A*02:50. The assay is described as above.
Assay [7] concerns the target HLA-A*03:01. The description is as above.
Assay [8] has as its target HLA-A*11:01. Described as above.
The target of assay [9] is HLA-A*23:01. Described as above.
Assay [10] concerns the target HLA-A*24:03. The assay is described as above.
For assay [11], the target named is HLA-A*26:01. The description is as above.
Assay [12] addresses HLA-A*26:03. The assay is described as above.
Assay [13] addresses HLA-A*29:02. The description is as above.
Assay [14] has as its target HLA-A*30:01. The assay is described as above. Particulars: source organism: Vibrio parahaemolyticus RIMD 2210633.
The target in assay [15] is HLA-B*07:02. The assay is described as above.
Assay [16] has as its target HLA-B*08:01. The description is as above.
For assay [17], the target named is HLA-B*15:01. The assay is described as above.
For assay [18], the target named is HLA-B*27:05. Described as above.
Assay [19] addresses HLA-B*39:01. The description is as above. Particulars: source organism: Vibrio parahaemolyticus RIMD 2210633.
Assay [20] concerns the target HLA-B*40:01. Described as above.
The target in assay [21] is HLA-B*44:02. The description is as above.
The target of assay [22] is HLA-B*46:01. The assay is described as above.
Assay [23] deals with HLA-B*48:01. Described as above.
Assay [24] has as its target HLA-B*51:01. The assay is described as above.
For assay [25], the target named is HLA-B*57:01. The assay is described as above.
Assay [26] has as its target HLA-B*58:01. Described as above.
The target in assay [27] is HLA-A*31:01. In words: IEDB peptide-MHC binding, purified MHC/competitive/fluorescence; filed as Kd, often an IC50 or EC50 that approximates it; ≥ and ≤ were set here for values at or beyond the usual limits of such assays. The note with it: source organism: Vibrio parahaemolyticus AN-5034.
In assay [28] the target is HLA-A*69:01. The description is as above.
Assay [29] deals with HLA-B*15:17. The assay is described as above. Particulars: source organism: Vibrio parahaemolyticus AN-5034.
Assay [30] has as its target HLA-A*26:02. In words: IEDB peptide-MHC binding, purified MHC/direct/fluorescence; filed as Kd, often an IC50 or EC50 that approximates it; ≥ and ≤ were set here for values at or beyond the usual limits of such assays. The note with it: source organism: Escherichia coli O157:H7 str. EC869.
Assay [31] deals with HLA-A*31:01. The assay is described as above. Particulars: source organism: Escherichia coli O157:H7.
Assay [32] deals with HLA-B*18:01. The assay is described as above. Particulars: source organism: Escherichia coli O157:H7 str. EC869.
For assay [33], the target named is HLA-B*38:01. The assay is described as above. Particulars: source organism: Escherichia coli O157:H7 str. EC869.
In assay [34] the target is HLA-B*15:02. Described as above. The note with it: source organism: Dengue virus.
The target in assay [35] is HLA-A*30:02. In words: IEDB peptide-MHC binding, purified MHC/competitive/radioactivity; filed as Kd, often an IC50 or EC50 that approximates it; ≥ and ≤ were set here for values at or beyond the usual limits of such assays. Particulars: source organism: Dengue virus 2 Jamaica/1409/1983.
Where [36] appears, read: source organism: Vibrio parahaemolyticus.
The mark [37] stands for this setting: source organism: Vibrio parahaemolyticus RIMD 2210633.
[38] abbreviates: source organism: Escherichia coli O157:H7.
[39] abbreviates: source organism: Escherichia coli O157:H7 str. EC869.

As usually defined, the Kd is the constant that tells how readily two partners part at equilibrium.

Regarding DTWHGFKNM, the Kd in assay [1] (setting [36]), in assay [2] (setting [36]), in assay [3], in assay [4] (setting [37]), in assay [5] (setting [37]) and in assay [6] (setting [37]) was not below 20 µM each time. Also, the Kd in [7] (setting [36]) was not below 20 µM; in [8] (setting [36]), not below 20 µM; in assay [9] (setting [37]), not below 20 µM; in assay [10] (setting [37]) it was not below 20 µM; in assay [11] (setting [37]), 0.171 µM; in assay [12] (setting [37]), 0.011 µM. Besides, the equilibrium dissociation constant (Kd) in assay [13] (setting [37]), in assay [14], in [15] (setting [36]), in [16] (setting [37]), in assay [17] (setting [36]) and in assay [18] (setting [36]) was not below 20 µM each time. The Kd in [19], in assay [20] (setting [36]), in [21] (setting [37]), in assay [22] (setting [36]), in assay [23] (setting [36]) and in assay [24] (setting [37]) was not below 20 µM each time. The dissociation constant Kd in [25] (setting [36]) is not below 20 µM; in assay [26] (setting [36]), not below 20 µM; in assay [27], not below 20 µM; in assay [28] (source organism: Vibrio parahaemolyticus AN-5034), 0.0223 µM; in assay [29], not below 20 µM.
Regarding ETIGLVRAL, the Kd in assay [1] (setting [38]), in [2] (setting [38]), in assay [4] (setting [39]), in [5] (setting [39]), in assay [6] (setting [39]) and in [7] (setting [38]) was not below 20 µM in each case. Further, the equilibrium dissociation constant (Kd) is not below 20 µM in [8] (setting [38]); not below 20 µM in [9] (setting [39]); not below 20 µM in assay [10] (setting [39]); 0.004 µM in assay [11] (setting [39]); not above 0.001 µM in [30]; not above 0.001 µM in assay [12] (setting [39]). Besides, the dissociation constant Kd in assay [13] (setting [39]) was not below 20 µM; in assay [31], not below 20 µM; in assay [15] (setting [38]), not below 5 µM; in assay [16] (setting [39]), not below 20 µM; in [17] (setting [38]) it was 1 µM; in assay [32], not below 20 µM. Moreover, the Kd in [18] (setting [38]), in assay [33], in assay [20] (setting [38]), in [21] (setting [39]), in assay [22] (setting [38]) and in [23] (setting [38]) was not below 20 µM throughout. The Kd is not below 20 µM in assay [24] (setting [39]), not below 20 µM in [25] (setting [39]), not below 20 µM in assay [26] (setting [38]) and 0.0006 µM in assay [28] (source organism: Escherichia coli B171).
With SQHNYRPGY, the Kd in [34] was 0.282 µM; in assay [22] (source organism: Dengue virus) it was not below 20 µM; in assay [35], 0.777 µM.

The values are drawn from the Immune Epitope Database (IEDB).
